According to article PMC6022668, “Biallelic UFM1 and UFC1 mutations expand the essential role of ufmylation in brain development” (Brain, 2018):

Molecular target: T1, GST-UBA5 (UniProt Q9GZZ9 1-404)
T1 construct: also called E1-like enzyme for ufmylation; source: recombinant, E. coli, purified on Glutathione Sepharose 4B (GST kept)
Experiment: pull-down; GST-UBA5 bound to Glutathione Sepharose 4B, incubated 20 min at 4°C with purified proteins in 20 mM Tris-Cl pH 7.5, 150 mM NaCl, 1 mM EDTA, 1 mM DTT, 0.05% Nonidet P-40; NuPAGE and Coomassie staining
Conditions: both partners purified

T1 sequence (Q9GZZ9 whole entry): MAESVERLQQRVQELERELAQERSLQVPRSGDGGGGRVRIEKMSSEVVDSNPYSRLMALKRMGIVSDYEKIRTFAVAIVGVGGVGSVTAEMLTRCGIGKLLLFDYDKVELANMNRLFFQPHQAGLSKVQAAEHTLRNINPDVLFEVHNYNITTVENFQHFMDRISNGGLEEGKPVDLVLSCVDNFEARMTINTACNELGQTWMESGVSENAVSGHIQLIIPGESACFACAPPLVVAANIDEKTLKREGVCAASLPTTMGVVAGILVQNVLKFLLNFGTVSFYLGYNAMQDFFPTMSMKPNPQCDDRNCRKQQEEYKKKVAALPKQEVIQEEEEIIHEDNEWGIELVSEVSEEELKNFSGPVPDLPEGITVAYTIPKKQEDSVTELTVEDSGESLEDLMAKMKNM

Row | Binder | binding result
1 | UFC1 (wild type, recombinant) (enzyme, human, UniProt Q9Y3C8 1-167, looked up, UFC1, human, the E2-like conjugating enzyme of UFM1; also called E2-like enzyme for ufmylation; source: recombinant, E. coli, purified on Glutathione Sepharose 4B, GST removed by PreScission protease) MADEATRRVVSEIPVLKTNAGPRDRELWVQRLKEEYQSLIRYVENNKNADNDWFRLESNKEGTRWFGKCWYIHDLLKYEFDIEFDIPITYPTTAPEIAVPELDGKTAKMYRGGKICLTDHFKPLWARNVPKFGLAHLMALGLGPWLAVEIPDLIQKGVIQHKEKCNQ | binds
2 | UFC1 T106I (recombinant) (enzyme, human, UniProt Q9Y3C8 1-167, looked up, UFC1, human, with the patients' homozygous variant c.317C>T p.(Thr106Ile); A variant found in patients; also called p.(Thr106Ile); source: recombinant, E. coli, purified on Glutathione Sepharose 4B, GST removed by PreScission protease) MADEATRRVVSEIPVLKTNAGPRDRELWVQRLKEEYQSLIRYVENNKNADNDWFRLESNKEGTRWFGKCWYIHDLLKYEFDIEFDIPITYPTTAPEIAVPELDGKIAKMYRGGKICLTDHFKPLWARNVPKFGLAHLMALGLGPWLAVEIPDLIQKGVIQHKEKCNQ | binds
